Measurements from the supplement of paper PMC9170038.

System: MS2 coat protein
Assay: apparent KD of MS2 coat protein; higher = weaker reporter binding
Details: Eterna round: R107; input ligand: theophylline 20 uM
Procedure, shortened: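 Apparent KD was obtained for each design as the median of normalised binding-curve fits over its clusters. RNA switches transcribed on-chip from Illumina sequencing clusters were titrated with SNAP-549-labelled MS2 coat protein (twofold steps, 0.7 or 1.5 nM to 3 µM) in 100 mM Tris-HCl pH 7.5, 80 mM KCl, 4 mM MgCl2, without or with constant ligand.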

First: CAUCGUCGGUCGGCCGCCACUACUGGACAUGAGGAUCACCCAUGUGGCCCGCUGUAUUAACCGCGUAGGACCGGGACGGGAGGUA [theeternabot_exclusion_MS2_Trp_B_4]
Second: AUCAUAAUAGACUCGUUUGAUUAUAUGGAACGAGGACCGGUACGGCCGCCACUCGUGAUUUACAUGAGGAUCACCCAUGUUAGCA [JR_ExcTryptoA_Sub005]
The “apparent KD of MS2 coat protein” value of the first is 2.1-fold higher: 0.0486 µM for the first, 0.0235 µM for the second.

“AUGCACAUCAGAAGGAGCGUCUUGGCCAAUCUAGGCCAACAUGAGGAUCACCCAUGUGCAGGACAGGUAGGUCGCUGAUGUGUAG [Arg B SS t8]” and “AUAUAUACAUGAGGAUCACCCAUGUUAUUUCGAGGACCGGUACGGCCGCCACUCGAUAGAGUAGAAGUAACAUUUGUUAGAUGAU [JR_SSTryptoA_Sub012]” are within 1.5-fold of each other in “apparent KD of MS2 coat protein” value: 0.0178 µM for the first, 0.0252 µM for the second.

First: AUACAUGAGGAUCACCCAUGUUAUAGUGAAGGAGCGACAUUUAUGUCAGGUAGGUCGCACUAAAGUUUAAUAAUUCUUUGAUCUU [JR_SSArginiA_Sub011]
Second: GGCUGUUGCUCUUUGAAGCGGCAGCGUGAUACCAGAUGUAAGAGCGUCCCUUGGCAGCACGUUUACAUGAGGAUCACCCAUGUCA [Raisquin]
The “apparent KD of MS2 coat protein” value of the first is 6.5-fold lower: 0.0249 µM for the first, 0.163 µM for the second.

First: AUGUCGUUGAAUAUAGCGGCUUGGAGUGAUACCAGUAUGAUCCAAUACCCUUGGCAGCAUAACAUGAGGAUCACCCAUGUUCCAG [SSTheo A #25]
Second: ACGCUGAUUGAUUACAAUCAGCGAAAAGAUACCAGCCUGGAUAUCGGCCCUUGGCAGCUUAAACCUGAGGAUCACCCUGGUAAAA [TheoAS 13 #MS2Right #BothOrNeither #AlternativeMS2]
The “apparent KD of MS2 coat protein” value of the first is 2.9-fold lower: 0.0437 µM for the first, 0.126 µM for the second.

“GACUGUAAAAUAUGACUCAGGGUGACGUCCCGAGGACCGGUACGGCCGCCACUCGAGCGAAUACAUGAGGAUCACCCAUGUAGUC [theeternabot_exclusion_MS2_Trp_A_15]” and “CUAUAUGGAAACAUAUAGACGCAAAAGCGACGAGGACCGGUACGGCCGCCACUCGAAGAGUGGUGGACAUGAGGAUCACCCAUGU [Design 3 MOD]” are within 1.5-fold of each other in “apparent KD of MS2 coat protein” value: 0.0615 µM for the first, 0.0731 µM for the second.

Compared with “CAAUGCAGGUCGGCCGCCACUACACACAUGAGGAUCACCCAUGUAGUUACUGGGUGAAGUGGCAGUAGGACCGGGACCUGCAUAC [Brourdmod03]”, “UGUAUGGACUGAAGGAGCGGGUAAUAAAUCUGAGGAUCACCCAGGUAAUAGGCGAAAGCCACCCAGGUAGGUCGCAGUCCAUACU” is 17-fold lower in “apparent KD of MS2 coat protein” value: 0.423 µM for the first, 0.0251 µM for the second.

First: AAUAACAUGAGGAUCACCCAUGUAACCGAAGGAGCGGCAAUAAAGCCAGGUAGGUCGCGGAAUAACAUGAGGAUCACCCAUGUAA [Exclusion Arginine A]
Second: GCACCAGGUACGGAUACCAGCUGCCACAGUUACAUGAGGAUCACCCAUGUGAUAAAGUGUAGCCCUUGGCAGCUGUACCUGGUGC [SSThB NP+V+V2 #6 +-Same Structure]
The “apparent KD of MS2 coat protein” value of the first is 1.6-fold higher: 0.112 µM for the first, 0.0691 µM for the second.

Compared with “AUAACGAGUGGUGGAAUACAUGGGUGAUAACGAGGACCGGUACGGCCGCCACUCGAUAACAUGAGGAUCACCCAUGUAAUAAUAA [|T'-M'-Trp-Ms2|_Design18]”, “UUUCAAGUAUCGGCCGCCACUCUAGUUGGUUGUUCAAUCCGAUUACAUGAGGAUCACCCAUGUCUGAGGACCGGGAUAAAGUAAU [theeternabot_sameState_MS2_Trp_B_25]” is 4.9-fold lower in “apparent KD of MS2 coat protein” value: 0.16 µM for the first, 0.0325 µM for the second.

“GAUGAACUAUUUGAUACCAGACUACAUGAGGAUCACCCAUGUGAGUUUAUACUUCAGUCAGUCCCUUGGCAGCAAAUAGUUUAUC [XTheo B #6]” and “AAAAUCCUACCUGAGGAUCACCCUGGUGAAGGAGCGCCCGAAAGGGCAGGUAGGUCGCACCUGAGGAUCACCCAGGUAACCUAAA [ArgEX 13 #DoubleMS2 #OpenEnded #AlternativeMS2]” are within 1.5-fold of each other in “apparent KD of MS2 coat protein” value: 0.0609 µM for the first, 0.0407 µM for the second.

In the case of “GGCCUGUGGAGCGAUACCAGCUUGAGUGUACUGGCCAGGUACAUGAGGAUCACCCAUGUAAGCCCUUGGCAGCGCUCCAGAGGCC [#1 Exclusion - Theophylline B Attempt #18 (HarryS)]”, the “apparent KD of MS2 coat protein” value is reported as 0.0164 µM.

Same assay, conditions: Eterna round: R107; input ligand: theophylline 2 mM

Compared with “AAUAGUCCUCGACAUGAGGAUCACCCAUGUCGAGGACCGGUACGGCCGCCACUCGACAUGAGGAUCACCCAUGUUGAGUGAUAAA [prototype 1]”, “GUCCUCAUGACGGCCGCCACUAAACAUGAGGAUCACCCAUGUAAUGAUCCAUUAAAUGAUAAUAGUAGGACCGGGUCAAAAUAAA [Same State Typptophan B GF11]” is 130-fold higher in “apparent KD of MS2 coat protein” value: 0.00782 µM for the first, 0.979 µM for the second.

“UUCUACGACGAUCUGGGAAAACCAGAUCGACGAGGACCGGUACGGCCGCCACUCGUGUUUCUUUAACAUGAGGAUCACCCAUGUA [#12 Tryptophan A Same State]” and “ACGCCCAGGUAGGCUUAAUGGGAAAUGGAAGGAGCGCUGAUGCAAGCAGGUAGGUCGCCAACGAACAUGAGGAUCACCCAUGUAA [Same State - Arginine A (Freestyle 2)]” are within 1.5-fold of each other in “apparent KD of MS2 coat protein” value: 0.0278 µM for the first, 0.0238 µM for the second.

Going from “GCUGCAGCUACGGCCGCCACUGUUACGUGAGACAUGAGGAUCACCCAUGUUGAUGUUUUACAGAAUAGGACCGGGUAGUUGUAGU [E 1.1]” to “ACGGAGAUGUCGGCCGCCACUGAACUCAUGUUCAACAUGAGGAUCACCCAUGUACCUUAGUUUAUCAGGACCGGGACAUAUACGA [JR_ExcTryptoB_Sub003]”, the “apparent KD of MS2 coat protein” value rises from 0.00987 µM to 0.183 µM (19-fold).

First: UGUACCAUGUCGGCCGCCACUCAUGAUAAACAUGAGGAUCACCCAUGUGGCGUCAAAGACGCUAUGAGGACCGGGACAUGGUACU [TryBS Zipper 3 #StaticStem #Zipper]
Second: AACACGGUGAUGGUAGCCGGACGCUAGGUACGAGGACCGGUACGGCCGCCACUCGAAGUCCUACGACAUGAGGAUCACCCAUGUA [Same State Trp A GF14]
The “apparent KD of MS2 coat protein” value of the first is 5.2-fold lower: 0.0157 µM for the first, 0.0817 µM for the second.

Going from “GCAUCCUAGUCGGCCGCCACUGGAUGUACCCAGUGCUGGUACAAACAUGAGGAUCACCCAUGUACCAGGACCGGGACUAGGAUGC [(Trp1)-(MT2)''-(T1)'-(MT2)'-(Ms2)-(Trp2)_Design3]” to “AAUAGACAUGAGGAUCACCCAUGUAUGGAAGGAGCGGUGAAUAAACCAGGUAGGUCGCCAGUGUGAGGGUCAUCUAUGUAAUAAA [#18 Exclusion - Arginine A]”, the “apparent KD of MS2 coat protein” value rises from 0.0123 µM to 0.0621 µM (5-fold).

Going from “CAUCGUCGGUCGGCCGCCACUACUGGACAUGAGGAUCACCCAUGUGGCCCGCUGUAUUAACCGCGUAGGACCGGGACGGGAGGUA [theeternabot_exclusion_MS2_Trp_B_4]” to “AUCAUAAUAGACUCGUUUGAUUAUAUGGAACGAGGACCGGUACGGCCGCCACUCGUGAUUUACAUGAGGAUCACCCAUGUUAGCA [JR_ExcTryptoA_Sub005]”, the “apparent KD of MS2 coat protein” value falls from 0.0393 µM to 0.0194 µM (2-fold).

Compared with “AUGCACAUCAGAAGGAGCGUCUUGGCCAAUCUAGGCCAACAUGAGGAUCACCCAUGUGCAGGACAGGUAGGUCGCUGAUGUGUAG [Arg B SS t8]”, “AUAUAUACAUGAGGAUCACCCAUGUUAUUUCGAGGACCGGUACGGCCGCCACUCGAUAGAGUAGAAGUAACAUUUGUUAGAUGAU [JR_SSTryptoA_Sub012]” is 1.7-fold higher in “apparent KD of MS2 coat protein” value: 0.0145 µM for the first, 0.0244 µM for the second.

Going from “AUACAUGAGGAUCACCCAUGUUAUAGUGAAGGAGCGACAUUUAUGUCAGGUAGGUCGCACUAAAGUUUAAUAAUUCUUUGAUCUU [JR_SSArginiA_Sub011]” to “ACGCUGAUUGAUUACAAUCAGCGAAAAGAUACCAGCCUGGAUAUCGGCCCUUGGCAGCUUAAACCUGAGGAUCACCCUGGUAAAA [TheoAS 13 #MS2Right #BothOrNeither #AlternativeMS2]”, the “apparent KD of MS2 coat protein” value rises from 0.0156 µM to 0.0729 µM (4.7-fold).
